Data: patent US20260092110A1 (Kyowa Kirin, published 2026)

T1: human MOG (hMOG) expressed on HEK293, Expi293F or L929 cells (human, UniProt Q16653 30-247)
T1 construct: also called hMOG/HEK293; hMOG/HEK293F
T1 chain: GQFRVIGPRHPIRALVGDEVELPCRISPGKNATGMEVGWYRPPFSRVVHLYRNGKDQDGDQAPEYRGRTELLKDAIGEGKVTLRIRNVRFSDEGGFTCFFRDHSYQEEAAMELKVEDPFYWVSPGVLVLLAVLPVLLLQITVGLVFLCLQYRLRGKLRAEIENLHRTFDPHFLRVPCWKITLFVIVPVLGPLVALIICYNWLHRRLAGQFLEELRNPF

B1: MOG352 (scFv phage clone similar to MOG310 antibody) (scFv)
scFv: EVQLVQSGAEVKKPGSSVKVSCKASGGTFSRYAINWVRQAPGQGLEWMGGIIPMFSTVNYAQKFQGRVTITADESTSTAYMELSSLRSEDTAVYYCARDWAVAGMGFDYWGQGTLVTVSSGGGGSGGRASGGGGSAIQMTQSPSSVSASVGDRVTITCRASQGISSWLAWYQHKPGKAPKSLIYAASSLQSGVPSRFSGSGSGTDFTLTISSLQPEDFATYYCQQYNSYPLTFGGGTKVDIK
B2: MOG338 (scFv phage clone similar to MOG310 antibody) (scFv)
scFv: QVQLVQSGAEVKKPGSSVKVSCKASGGTFSRYAISWVRQAPGQGLEWMGGIIPMFNTANYAQKFQGRVTITADESTSTAYMELSSLRSEDTAVYYCARDWAVAGMGFDPWGQGTLVTVSSGGGGSGGRASGGGGSEIVLTQSPATLSLSPGERATLSCRASQSVSSYLAWYQQKPGQAPRLLIYDASNRATGIPARFSGSGSGTDFTLTISSLEPEDFAVYYCQQRNNWPLTFGGGTKLEIK
B3: MOG308 (scFv phage clone similar to MOG310 antibody) (scFv)
scFv: EVQLVQSGAEVRKSGSSVKVSCKASGGTFSRYAISWVRQAPGQGLEWMGGIIPMFSTTNYAQKFQGRVTITADESTSTAYMELSSLRSEDTAVYYCARDWAVAGMGFAYWGQGTLVTVSSGGGGSGGRASGGGGSEIVMTQSPATLSLSPGERATLSCRASQSVSSYLAWYQQKPGQAPRLLIYDASNRATGIPARFSGSGSGTDFTLTISSLEPEDFAVYYCQQRSNWPPTFGQGTKVDIK
B4: MOG470 (scFv phage clone similar to MOG329 antibody) (scFv)
scFv: QVQLVESGGGLVQPGGSLRLSCAASGFTFSSYAMNWVRQAPGKGLEWVSAISGSGGSTYYADSVKGRFTISRDNSKNTLYLQVNSLRAEDTAVYYCARDYGGISPFDYWGQGTLVTVSSGGGGSGGRASGGGGSEIVMTQSPATLSLSPGERATLSCRASQSVSSYLAWYQQKPGQAPRLLIYDASNRATGIPARFSGSGSGTDFTLTISRLEPEDFAVYYCQQYGSSPYTFGQGTRLEIK
B5: MOG314 (scFv phage clone similar to MOG303 antibody) (scFv)
scFv: QVQLVESGGGLVQPGGSLRLSCAASGFTFSSYAMSWVRQAPGKGLEWVSAISGRGSSTYYADSVKGRFTISRDNSKNTLYLQMNSLRAEDTAVYYCAKGYYDILTGSFFDYWGQGTLVTVSSGGGGSGGRASGGGGSDIQLTQSPSSLSASVGDRVTITCRASQGISSALAWYQQKPGKAPKLLIYDASSLESGVPSRFSGSGSGTDFTLTISSLQPEDFATYYCQQFNSYPYTFGQGTKLEIK
B6: MOG476 (scFv phage clone similar to MOG303 antibody) (scFv)
scFv: EVQLVESGGGLVQPGGSLRLSCAASGFTFSSYAMNWVRQAPGKGLEWVSAISYSGRSTYYADSVKGRFTISRDNSKNTLYLQMNSLRAEDTAVYYCAKGLYDILTGGGFDYWGQGTLVTVSSGGGGSGGRASGGGGSDIQMTQSPSSLSASVGDRVTITCRASQGISSALAWYQQKPGKAPKLLIYDASSLESGVPSRFSGSGSGTDFTLTISSLQPEDFATYYCQQFNSYPSTFGQGTRLEIK
B7: MOG315 (scFv phage clone similar to MOG303 antibody) (scFv)
scFv: EVQLVESGGGLVQPGGSLRLSCAASGFTFSTYAMSWVRQAPGKGLEWVSAISGSGVSTYYADSVKGRFTLSRDNSKNTLYLQMNSLRAEDTAVYYCAKAYYDILTGNFLDYWGQGTLVTVSSGGGGSGGRASGGGGSAIQLTQSPSSLSASVGDRVTITCRASQGISSALAWYQQKPGKAPKLLIYDASSLESGVPSRFSGSGSGTDFTLTISSLQPEDFATYYCQQFNSYPLTFGGGTKVEIK
B8: MOG456 antibody (anti-MOG scFv displayed on phage, pCANTAB_MOG456) (scFv)
scFv: EVQLVESGGGLVKPGGSLRLSCAASGFTFSSYSMHWVRQAPGKGLEWVSSIGSRSRYIYYADSVKGRFTISRDNAKNSLYLQMNSLRAEDTAVYYCAKGYYDILTGSLFDYWGQGTLVTVSSGGGGSGGRASGGGGSDIVMTQSPSSLSASVGDRVTITCRASQGISSALAWYQQKPGKAPKLLIYDASSLESGVPSRFSGSGSGTDFTLTISSLQPEDFATYYCQQFNSYPWTFGQGTKVEIK
B9: MOG329 antibody (anti-MOG scFv displayed on phage, pCANTAB_MOG329) (scFv)
scFv: QVQLVESGGGLVQPGGSLRLSCAASGFAFRNYAMNWVRQAPGKGLEWVSAISGSGGSTYYADSVKGRFTISRDNSKNTLYLQMNSLRAEDTAVYYCARDYGGISPFDYWGQGTLVTVSSGGGGSGGRASGGGGSDIQLTQSPSSLSASVGDRVTITCRASQGISSALAWYQQKPGKAPKLLIYDASSLESGVPSRFSGSGSGTDFTLTISSLQPEDFATYYCQQFNSYPHTFGQGTKVDIK
B10: MOG357 (scFv phage clone similar to MOG303 antibody) (scFv)
scFv: EVQLVETGGGLVQPGGSLRLSCAASGFTFSSYAMSWVRQAPGKGLEWVSDINHSGGSTYYADSVKGRFTISRDNSKHTLYLQMNSLRAEDTAVYYCAKDYYDILTGSFFDYWGQGTLVTVSSGGGGSGGRASGGGGSDIVMTQSPSSLSASVGDRVTITCRASQGISSALAWYQQKPGKAPKLLIYDASSLESGVPSRFSGSGSGTDFTLTISSLQPEDFATYYCQQFNSYPWTFGQGTKVEIK
B11: MOG316 (scFv phage clone similar to MOG310 antibody) (scFv)
scFv: EVQLVQSGAEVKKPGSSVKVSCKASGGTFSRYAISWVRQAPGQGLEWMGGIIPMFNTANYAQKFQGRVTITADESTSTAYMELSSLRSEDTAVYYCARDWAVAGMGFNYWGQGTLVTVSSGGGGSGGRASGGGGSDIQMTQSPSSLSASVGDRVTITCRASQGINSALAWYQQKPGKAPKLLIYAASSLQSGVPSRFSGSGSGTDFTLTISSLQPEDFATYYCQQYNSYPITFGQGTRLEIK
B12: MOG426 (scFv phage clone similar to MOG301 antibody) (scFv)
scFv: QVQLVQSGAEVKKPGASVKVSCKASGYSFNSYGINWVRQAPGQGLEWMGWISAYTGKTSYAQKVQGRVTMTTDRSTSTAYMELRSLRSDDTAMYYCAREYDILTGYSDAFDTWGQGTMVTVSSGGGGSGGRASGGGGSEIVLTQSPATLSLSPGERATLSCRASQSVSSYLAWYQQKPGQAPRLLIYDASNRATGIPARFSGSGSGTDFTLTISSLEPEDFAVYYCQQRGNWPLTFGGGTKLEIK
B13: AVM IgG4PE(R409K)_MOG01dscFv2 antibody (bispecific antibody)
heavy: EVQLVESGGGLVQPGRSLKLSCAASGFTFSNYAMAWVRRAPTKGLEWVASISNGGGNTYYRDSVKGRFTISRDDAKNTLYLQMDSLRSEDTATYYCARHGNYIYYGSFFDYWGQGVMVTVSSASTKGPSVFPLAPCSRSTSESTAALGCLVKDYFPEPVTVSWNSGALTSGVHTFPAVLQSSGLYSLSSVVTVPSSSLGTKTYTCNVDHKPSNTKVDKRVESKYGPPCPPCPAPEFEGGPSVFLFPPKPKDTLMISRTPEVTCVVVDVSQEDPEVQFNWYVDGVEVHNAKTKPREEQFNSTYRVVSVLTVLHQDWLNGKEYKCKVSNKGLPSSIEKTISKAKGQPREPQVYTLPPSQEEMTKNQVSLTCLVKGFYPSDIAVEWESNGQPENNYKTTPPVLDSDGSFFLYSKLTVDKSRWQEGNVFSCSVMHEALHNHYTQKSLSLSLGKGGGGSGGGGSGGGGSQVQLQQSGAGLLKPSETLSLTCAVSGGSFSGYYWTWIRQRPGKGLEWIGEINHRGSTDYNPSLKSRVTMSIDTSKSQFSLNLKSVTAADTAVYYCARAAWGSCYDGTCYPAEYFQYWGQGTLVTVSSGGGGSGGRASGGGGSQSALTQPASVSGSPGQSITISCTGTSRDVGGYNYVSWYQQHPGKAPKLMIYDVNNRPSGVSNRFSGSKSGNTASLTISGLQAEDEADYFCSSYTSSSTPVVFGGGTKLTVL
light: QFVLSQPNSVSTNLGSTVKLSCKRSTGNIGSNYVSWYQQHEGRSPTTMIYRDDKRPDGVPDRFSGSIDRSSDSALLTINNVQTEDEADYFCQSYSSGINIFGGGTKLTVLGQPKAAPSVTLFPPSSEELQANKATLVCLISDFYPGAVTVAWKADSSPVKAGVETTTPSKQSNNKYAASSYLSLTPEQWKSHRSYSCQVTHEGSTVEKTVAPTECS
notes: also called pCI-AVM-hLG4PE(R409K)_MOG01scFv2
B14: AVM IgG4PE(R409K)_MOG01dscFv8 antibody (bispecific antibody)
heavy: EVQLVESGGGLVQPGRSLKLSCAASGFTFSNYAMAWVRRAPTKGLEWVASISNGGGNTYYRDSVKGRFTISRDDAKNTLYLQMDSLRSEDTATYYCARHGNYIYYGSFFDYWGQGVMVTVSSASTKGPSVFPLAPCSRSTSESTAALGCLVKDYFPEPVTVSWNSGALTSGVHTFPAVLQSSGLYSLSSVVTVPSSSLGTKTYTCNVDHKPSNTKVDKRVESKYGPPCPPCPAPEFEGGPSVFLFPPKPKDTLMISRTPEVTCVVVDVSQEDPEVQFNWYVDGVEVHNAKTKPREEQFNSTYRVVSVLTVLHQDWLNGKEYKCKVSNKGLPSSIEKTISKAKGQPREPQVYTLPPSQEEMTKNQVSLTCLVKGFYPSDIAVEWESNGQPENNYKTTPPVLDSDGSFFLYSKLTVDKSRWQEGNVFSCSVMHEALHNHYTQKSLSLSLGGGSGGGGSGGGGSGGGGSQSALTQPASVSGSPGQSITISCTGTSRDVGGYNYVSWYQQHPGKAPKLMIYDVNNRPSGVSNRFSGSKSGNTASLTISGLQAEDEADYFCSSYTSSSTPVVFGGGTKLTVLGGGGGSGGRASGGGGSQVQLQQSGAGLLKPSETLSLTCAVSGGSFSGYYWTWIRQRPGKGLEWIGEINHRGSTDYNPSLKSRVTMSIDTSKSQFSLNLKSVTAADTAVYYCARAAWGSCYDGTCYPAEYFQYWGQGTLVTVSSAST
light: B13 light
notes: also called pCI-AVM-hLG4PE(R409K)_MOG01scFv8
B15: AVM IgG4PE(R409K)_MOG01dscFv10 antibody (bispecific antibody)
heavy: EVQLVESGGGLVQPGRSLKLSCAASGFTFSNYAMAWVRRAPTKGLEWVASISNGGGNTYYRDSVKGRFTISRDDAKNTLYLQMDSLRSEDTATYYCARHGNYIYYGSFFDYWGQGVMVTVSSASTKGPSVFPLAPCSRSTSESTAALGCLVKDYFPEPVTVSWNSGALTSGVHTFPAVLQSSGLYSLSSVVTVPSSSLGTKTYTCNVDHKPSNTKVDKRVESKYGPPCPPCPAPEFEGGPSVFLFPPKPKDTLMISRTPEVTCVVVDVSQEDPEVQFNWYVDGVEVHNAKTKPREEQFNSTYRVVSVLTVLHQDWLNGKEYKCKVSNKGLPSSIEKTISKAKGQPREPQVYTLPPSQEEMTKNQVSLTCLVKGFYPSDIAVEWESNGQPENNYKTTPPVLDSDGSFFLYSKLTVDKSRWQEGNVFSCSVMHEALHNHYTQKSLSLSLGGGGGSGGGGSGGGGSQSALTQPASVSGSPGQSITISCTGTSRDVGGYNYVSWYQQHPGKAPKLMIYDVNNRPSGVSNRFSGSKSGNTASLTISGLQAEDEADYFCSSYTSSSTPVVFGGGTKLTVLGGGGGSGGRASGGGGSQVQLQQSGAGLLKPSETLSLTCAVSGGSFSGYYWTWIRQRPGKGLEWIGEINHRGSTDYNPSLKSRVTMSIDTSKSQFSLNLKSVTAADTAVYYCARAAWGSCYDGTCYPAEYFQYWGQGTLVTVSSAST
light: B13 light
notes: also called AVM IgG4PE(R409K)_MOG01dscFvlO antibody; pCI-AVM-hLG4PE(R409K)_MOG01scFv10
B16: AVM IgG4PE(R409K)_MOG01dscFv9 antibody (bispecific antibody)
heavy: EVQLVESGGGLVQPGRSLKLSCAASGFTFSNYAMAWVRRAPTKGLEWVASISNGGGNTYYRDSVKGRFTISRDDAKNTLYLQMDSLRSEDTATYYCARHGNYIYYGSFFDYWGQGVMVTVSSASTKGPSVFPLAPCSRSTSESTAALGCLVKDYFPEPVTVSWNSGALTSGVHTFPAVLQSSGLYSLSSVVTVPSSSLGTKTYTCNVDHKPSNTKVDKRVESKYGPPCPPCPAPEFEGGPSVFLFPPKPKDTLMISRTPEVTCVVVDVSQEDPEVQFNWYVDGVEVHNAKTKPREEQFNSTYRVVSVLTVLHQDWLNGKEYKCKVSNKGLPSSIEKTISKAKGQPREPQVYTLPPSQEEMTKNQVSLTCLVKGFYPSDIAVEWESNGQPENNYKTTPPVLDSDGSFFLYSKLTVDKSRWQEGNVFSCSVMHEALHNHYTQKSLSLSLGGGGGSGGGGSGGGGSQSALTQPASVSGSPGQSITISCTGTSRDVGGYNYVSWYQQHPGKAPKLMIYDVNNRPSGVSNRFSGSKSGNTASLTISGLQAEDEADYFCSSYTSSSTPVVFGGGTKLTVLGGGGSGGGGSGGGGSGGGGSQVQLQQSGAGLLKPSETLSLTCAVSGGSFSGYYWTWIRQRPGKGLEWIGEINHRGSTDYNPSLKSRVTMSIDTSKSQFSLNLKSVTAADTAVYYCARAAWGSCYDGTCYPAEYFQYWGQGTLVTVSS
light: B13 light
notes: also called pCI-AVM-hLG4PE(R409K)_MOG01scFv9
B17: AVM IgG4PE(R409K)_MOG01dscFv4 antibody (bispecific antibody)
heavy: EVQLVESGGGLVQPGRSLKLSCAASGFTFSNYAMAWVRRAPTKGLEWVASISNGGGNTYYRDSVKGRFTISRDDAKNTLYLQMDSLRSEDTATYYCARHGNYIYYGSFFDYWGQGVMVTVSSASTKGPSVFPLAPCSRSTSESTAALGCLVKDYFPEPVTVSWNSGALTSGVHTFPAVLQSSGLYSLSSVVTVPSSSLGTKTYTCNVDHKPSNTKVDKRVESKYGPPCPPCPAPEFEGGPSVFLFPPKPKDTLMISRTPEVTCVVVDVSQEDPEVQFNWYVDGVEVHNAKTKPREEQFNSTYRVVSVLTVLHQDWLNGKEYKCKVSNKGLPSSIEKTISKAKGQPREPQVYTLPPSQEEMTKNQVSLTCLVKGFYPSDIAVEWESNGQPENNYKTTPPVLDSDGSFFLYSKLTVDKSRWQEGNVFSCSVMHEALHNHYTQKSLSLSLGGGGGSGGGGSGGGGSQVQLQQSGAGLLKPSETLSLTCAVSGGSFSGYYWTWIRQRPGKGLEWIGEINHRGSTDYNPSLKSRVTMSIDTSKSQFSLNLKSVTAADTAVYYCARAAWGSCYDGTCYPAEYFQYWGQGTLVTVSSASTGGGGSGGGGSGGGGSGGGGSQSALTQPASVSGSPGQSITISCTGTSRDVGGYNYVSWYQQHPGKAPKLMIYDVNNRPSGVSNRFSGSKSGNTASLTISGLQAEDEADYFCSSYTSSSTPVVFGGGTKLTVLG
light: B13 light
notes: also called pCI-AVM-hLG4PE(R409K)_MOG01scFv4
B18: AVM IgG4PE(R409K)_MOG01dscFv11 antibody (bispecific antibody)
heavy: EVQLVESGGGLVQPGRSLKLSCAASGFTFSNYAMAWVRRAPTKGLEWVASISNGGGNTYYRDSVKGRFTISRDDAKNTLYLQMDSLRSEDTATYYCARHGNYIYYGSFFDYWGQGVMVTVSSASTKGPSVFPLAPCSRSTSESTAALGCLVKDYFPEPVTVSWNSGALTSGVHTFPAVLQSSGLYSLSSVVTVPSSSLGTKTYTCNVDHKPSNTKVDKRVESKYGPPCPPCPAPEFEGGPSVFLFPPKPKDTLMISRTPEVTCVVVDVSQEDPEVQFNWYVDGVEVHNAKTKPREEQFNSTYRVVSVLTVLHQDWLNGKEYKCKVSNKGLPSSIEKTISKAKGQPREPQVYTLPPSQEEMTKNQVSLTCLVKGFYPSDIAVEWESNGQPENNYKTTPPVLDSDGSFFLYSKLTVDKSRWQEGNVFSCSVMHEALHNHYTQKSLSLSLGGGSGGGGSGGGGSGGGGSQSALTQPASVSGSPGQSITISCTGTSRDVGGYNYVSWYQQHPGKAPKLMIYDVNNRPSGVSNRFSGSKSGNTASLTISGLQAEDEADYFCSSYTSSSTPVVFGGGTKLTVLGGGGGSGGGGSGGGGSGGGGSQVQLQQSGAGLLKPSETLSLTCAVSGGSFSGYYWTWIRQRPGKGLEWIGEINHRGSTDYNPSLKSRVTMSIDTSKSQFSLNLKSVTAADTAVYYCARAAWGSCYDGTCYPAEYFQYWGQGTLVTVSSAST
light: B13 light
notes: also called pCI-AVM-hLG4PE(R409K)_MOG01scFv11

Biological target: extracellular domain protein of human MOG to which FLAG-Fc is added at the C-terminus (hMOG-FLAG-Fc) (human)
Test: phage ELISA

Binder | binding result
B1 | binds
B2 | binds
B3 | binds
B4 | binds
B5 | binds
B6 | binds
B7 | binds
B8 | binds
B9 | binds
B10 | binds
B11 | binds
B12 | binds

Biological target: T1, human MOG (hMOG) expressed on HEK293, …
Test: phage clone on hMOG/Expi293F cells

Binder | binding result
B1 | binds
B2 | binds
B3 | binds
B4 | binds
B5 | binds
B6 | binds
B7 | binds
B8 | binds
B9 | binds
B10 | binds
B11 | binds
B12 | binds

Biological target: T1, human MOG (hMOG) expressed on HEK293, …
Test: flow cytometry on L929 cells expressing human MOG (hMOG/L929); antibody titrated, RPE-labelled goat anti-human antibody
From the text: pEF6_hMOG obtained in Example 5 was introduced to mouse connective tissue-derived fibroblast L929 cells [American Type Culture Collection (ATCC) No.: CCL-1] using HilyMax (manufactured by Dojindo Laboratories). The gene-transfected cells were selected using an antibiotic substance, Blasticidin (manufactured by Invitrogen) and then cloned by the limiting dilution method. Using the L929 cells expressing hMOG on the cell surface (abbreviated as hMOG/L929 below), the reactivities of the bispecific antibodies were analyzed by the method described below.
The hMOG/L929 cells were suspended in a Staining Buffer (SB) of PBS containing 0.1% NaN₃ and 1% FBS and dispensed to a round-bottom 96-well plate (manufactured by Becton Dickinson). […] After suspending the pellets, the plate was left to stand at ice temperature for 30 minutes. The supernatants were removed after further centrifugation (2000 rpm, 4° C., two minutes), and the pellets were washed with SB. Then, 1 μg/mL RPE fluorescently labeled goat anti-human antibody (manufactured by Southern Biotech) was added, and the plate was incubated at ice temperature for 30 minutes. After washing with SB, the cells were suspended in SB, and the fluorescence intensities of the cells were measured with a flow cytometer FACS CANTO II (manufactured by Becton Dickinson). The results are shown in FIGS. 12A to 12C and FIGS. 13A and 13B.

Binder | binding result
B13 | binds
B14 | binds
B15 | binds
B16 | binds
B17 | binds
B18 | binds
